Here are results for one substance from PMC7093966.

The experiment addresses FITC-Aβ42 (UniProt P05067). The experiment can be described thus: solid-phase fluorescence binding assay (FITC-peptide on coated plate); black 96-well plates coated with 50 μg/mL rat-tail collagen-I or 10% BSA; 1 μM FITC-Aβ42 in RPMI with or without 200 μg/mL HDL (total, apoE-depleted or apoE-enriched) or BSA; 24 h at 37 °C, 5% CO2; PBS washes; excitation 490 nm, emission 520 nm.

Sequence of FITC-Aβ42 (P05067 672-713): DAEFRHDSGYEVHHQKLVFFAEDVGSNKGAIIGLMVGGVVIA
Sequence of High density lipoprotein (HDL), density 1.063-1.21 g/mL (P02649 whole entry, looked up): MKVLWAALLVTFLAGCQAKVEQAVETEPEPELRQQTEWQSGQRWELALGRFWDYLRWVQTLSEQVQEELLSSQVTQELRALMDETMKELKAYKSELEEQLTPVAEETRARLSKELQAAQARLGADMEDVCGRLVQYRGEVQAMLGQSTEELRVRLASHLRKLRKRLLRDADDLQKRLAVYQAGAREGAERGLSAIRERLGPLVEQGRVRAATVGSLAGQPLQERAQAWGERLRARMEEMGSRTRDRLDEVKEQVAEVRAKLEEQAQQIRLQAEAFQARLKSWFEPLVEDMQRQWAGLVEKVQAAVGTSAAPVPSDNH
Sequence of High density lipoprotein (HDL), density 1.063-1.21 g/mL (P02652 whole entry, looked up): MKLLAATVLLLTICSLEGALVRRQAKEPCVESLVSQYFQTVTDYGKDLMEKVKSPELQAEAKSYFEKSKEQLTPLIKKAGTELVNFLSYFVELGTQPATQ
Sequence of High density lipoprotein (HDL), density 1.063-1.21 g/mL (P02647 whole entry, looked up): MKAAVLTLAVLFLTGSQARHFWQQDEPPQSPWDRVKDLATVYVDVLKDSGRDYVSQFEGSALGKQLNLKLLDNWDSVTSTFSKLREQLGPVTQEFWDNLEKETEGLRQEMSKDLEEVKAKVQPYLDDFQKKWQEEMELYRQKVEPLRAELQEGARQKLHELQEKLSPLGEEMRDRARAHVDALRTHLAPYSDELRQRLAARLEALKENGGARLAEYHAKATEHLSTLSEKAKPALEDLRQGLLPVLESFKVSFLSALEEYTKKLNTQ

On to “High density lipoprotein (HDL), density 1.063-1.21 g/mL (from UniProt P02647 19-267; P02652 19-100; P02649 19-317) (complex)”, for which the fold reduction of Aβ42 binding to BSA worked out at 11.8 fold and the fold reduction of Aβ42 binding to collagen-I came to 7 fold.
